# Measurements: the DeepSol protein solubility set
# Test: soluble on expression in E. coli; label from the status in PepcDB or PDB records
row,Sequence,soluble on expression in E. coli
1,SLIENSHVKKDDIWPSGGQMTVKDLTAKYTEGGNAILENISFSISPGQRVGLLGRTGSGKSTLLSAFLRLLNTEGEIQIDGVSWDSITLEQWRKAFGVIPQKVFIFSGTFRKNLDPYEQWSDQEIWKVADEVGLRSVIEQFPGKLDFVLVDGGCVLSHGHKQLMCLARSVLSKAKILLLDEPSAHLDPVTYQIIRRTLKQAFADCTVILCEARIEAMLECDQFLVIEENKVRQYDSILELYHYPADRFVAGFIGSPKMNFLPVKVTATAIDQVQVELPMPNRQQVWLPVESRDVQVGANMSLGIRPEHLLPSDIADVILEGEVQVVEQLGNETQIHIQIPSIRQNLVYRQNRVVLVEEGATFAIGLPPERCHLFREDGTACRRLHKEPGV,soluble
2,MAHHHHHHVDDDDKMVSTTPAAGVLDTSVFIATESGRQLDEALIPDRVATTVVTLAELRVGVLAAATTDIRAQRLATLESVADMETLPVDDDAARMWARLRIHLAESGRRVRINDLWIAAVAASRALPVITQDDDFAALDGAASVEIIRV,soluble
3,DWDSREKEAQRVAQRVTARTVSEIEYYHRESTQIAQALVENQARIEGIYKYFSLSMPDYFYWQLERKASPYISVSLYENVDDLYVRNDFVTGVAIAFQDYKEVYVSTKDKRSGEKIRAEDFKPAGNSFAIPVSDPVSDQDLGVIYISLDPAVLYHAIDNTRGHTPMAVTVTSPFDTEIFHMGETVDKESENWLVGLTSHGYQVQVAVPKN,not soluble
4,MGSDKIHHHHHHMKAVVIVKRAGQERPDLEYQTVPDPKPEPNELLVSVRAAGINRIDLHRSTAHGAPAAGKPLVAGLEMSGEVVAVGENVHDFRTGDKVYGMTTGSYAELATIDHRYALPVPPAFSFDQATAVATVYPTAHNALVTNGQFAAGKTVLIQGVSSAVGIATLQIAKAMGAKCVVGTGRPNANIGKLAEAGLDRFLLNGTDNIPAEIMAMTDGRGVDTIVDMVGGPTIADNLESVALAGRIVSVGWVGGTKGEIDLDTLARKRVTLVGVSFRTRTVEEKTELFAQFRRDVYPLFVNGTLVPYIAATYHLSEAAAAQDAMAEDKHFGKILLHP,not soluble
5,MGSDKIHHHHHHMSSSTTPDLLYPSADKVAEPSDNIHGDELRLRERIKDNPTNILSYFQLIQYLETQESYAKVREVYEQFHNTFPFYSPAWTLQLKGELARDEFETVEKILAQCLSGKLENNDLSLWSTYLDYIRRKNNLITGGQEARAVIVKAFQLVMQKCAIFEPKSSSFWNEYLNFLEQWKPFNKWEEQQRIDMLREFYKKMLCVPFDNLEKMWNRYTQWEQEINSLTARKFIGELSAEYMKARSLYQEWLNVTNGLKRASPINLRTANKKNIPQPGTSDSNIQQLQIWLNWIKWERENKLMLSEDMLSQRISYVYKQGIQYMIFSAEMWYDYSMYISENSDRQNILYTALLANPDSPSLTFKLSECYELDNDSESVSNCFDKCTQTLLSQYKKIASDVNSGEDNNTEYEQELLYKQREKLTFVFCVYMNTMKRISGLSAARTVFGKCRKLKRILTHDVYVENAYLEFQNQNDYKTAFKVLELGLKYFQNDGVYINKYLDFLIFLNKDSQIKTLFETSVEKVQDLTQLKEIYKKMISYESKFGNLNNVYSLEKRFFERFPQENLIEVFTSRYQIQNSNLIKKLELTYMYNEEEDSYFSSGNGDGHHGSYNMSSSDRKRLMEETGNNGNFSNKKFKRDSELPTEVLDLLSVIPKRQYFNTNLLDAQKLVNFLNDQVEIPTVESTKSG,not soluble
6,PRVPSAGAAECKGEISNVQWKNDTNIKDGVFVGSYGQGADVQFDWKVDPGAKAGDQFTLKLPNELSRLGNKDLTLTAPSGEEVAKGTWDDVAKTWTFTLTDYANSHGDISGSAFFTVQWDRSVAQSNTQYPLTFSGCKGAGTLNGKTPEEGVGGTAQATSKTGLYDSKTDSARWNIYVETADTDIYTPVVVKDIGNTQLLFRCSDVKVFDRTPYPHTKIRDTPIDPNRWKCEEKDGGIIVSMVPDEHGRYLTAGQSLTIGFETPINDDTSRFITNKAIVEISPNKIENVEYSVDRGDAGGVGQGFQGKIKIQKEVVGETAPVQGNKFDFEYKCGETTQNISVAAGQTSDIFTQRSSSTCSITEKNVAEGVTVDFEVIDEETGKPAYVVPIDNGVTVKFNKNSSTTLNVKVTNTYPNKPEAKKGKFVIKKTVNGLDAGQKDKAFKFNYTCKAPDGDAYTEPQLAEVTAGRTWQSGNYPEGTICTIEEDLESAKVPGYSLISAQPKGDVTIKAEGTEGSPVEFAATNSYTKDLGSFSVQKKIEASAEAMPLLKDQEFGFKYTCGADKGEFKLKNGETKKVERIATGTKCTVEESDAKVPNGFMWTGKIEGTDLDPNDFTIVKDKTLAFTATNTYKQQYGGFTLSKNVTGDATNLEELQKRSYTFNYTCTAPTGTVLKDKVEITEETPKAIGNIPAASTCKVTEVEAPAKDTDWTVDLSVNGTWVGETAEFKVPAEGEPSISILAKNNYRQHKGSFTIEKIVDASEGIVTPKEFTFTWQCGEDKGAETVRVTNGKGRVEIDRAFPVGTKCSVKELEAEAEDARLITSWENQEFTIDKDKQHVIVSATNTYRYAESKVKIVKKLEGPAKDKAKDKTFTFDYSCVVNNEAIEGSVNITGEGATEIPESFPAGTKCTITERDASISGTTWTHRIAEDGQITIQSPAKVYQVGVTNAYSKPGFP,not soluble
7,MRKEEVLALLRSRWPELCALGVAELYLFGSLARGEARPRSDVDLLVAFATPPGFEGYWRVKEFLESLLGRPVDLVMKGALKPWAVSEVLGEAVRVA,soluble
8,MLSLTAHLVLISTIIVKCSAFSKKPSERAKPAAVKKAVEDKQPVKVTAFEQASLNEDKAEAMSNIEPSPKISNSTVPTAPTPKKEKKVVATTKKTERSVAQGPPLVSEHIKDEKKMPSVHKPIRKGSIYANELLTEKPLTDTEPELHPDNHVVKAKSPKPVARTPTARHRNALKPGKINDKSDDTLHDAPSIQKVGGPSYEDAASVNEKEKDVNPK,not soluble
9,MGSDKIHHHHHHMNYCSIVSSNVVKGKAKELGFHKVGIAAVNESTNAEAERLQAWIKLGYHADMEWMNNPKRSDISLIMPEARSLVCVALNYYTPHQRPDSAEYAKISRYGWGRDYHKVMNRKLKALTTWLQSLDPSIQARYYADTGPVQDKVWAQRAGIGWIAKNGNVITRAYGSWVFLGEVVTNLELEKDSPHTEHCGSCTRCLDACPTGAITQPFVVDANRCIAYHTIENRAAELPEAIASQMQGWVAGCDICQDVCPWNQRFAQTTDVVDFQPYPDNIAPKLIELAQISDEEWDKQFPASALRRIKPEMLRRNARANLDASKRNNDPESNHF,not soluble
10,AKKAMEQILIPVANPETIENLVNLALVIKDAKQKNGMIALNVINDNNSSENKELQGKRNLEKAAMIAAAADVPVTMVSRYDLNIASGIIHTIKEYEATDVVIGLHRKANIVDSFFGNLAESLLKGTHREVMIAKFLM,not soluble
11,MSTFKPLKILASRRQVLKAGLAAMTLSGVASQVSAKEQPLKTSNGHSKPAAKKAGGRRIVMLDPGHGGIDTGAIGHNGSKEKHVVLAIAKNVRSILRSNGIDARLTRTGDTFIPLYDRVEIAHQHGADLFMSIHADGFTNPSAAGASVFALSNRGASSAMAKYLSDRENRADEVAGKKATDKDHLLQQVLFDLVQTDTIKNSLTLGSHILKKIKPVHKLHSRNTEQAAFVVLKSPSIPSVLVETSFITNPNEEKLLGTTAFRQKIATAIANGIISYFHWFDNQKAHSKRR,not soluble
12,MGSDKIHHHHHHMAQNIYDQPDFFAGYSQLGRSIEGLDGAAEWPALRAMLPEVGGLRIVDLGCGFGWFCRWAHEHGASYVLGLDLSEKMLARARAAGPDTGITYERADLDKLHLPQDSFDLAYSSLALHYVEDVARLFRTVHQALSPGGHFVFSTEHPIYMAPARPGWAIDAEGRRTWPIDRYLVEGPRKTDWLAKGVVKHHRTVGTTLNALIRSGFAIEHVEEFCPTDAQITARPELAEELDRPMFLLVSARR,not soluble
13,MDSFWFVQQWPPAVCSFQKSGSCPGSGLRTFTIHGLWPQQSGTSLTNCPGSPFDITKISHLQSQLNTLWPSVLRANNQQFWSHEWTKHGTCSESTFNQAAYFKLAVDMRNNYDIIGALRPHAAGPNGRTKSRQAIKGFLKAKFGKFPGLRCRTDPQTKVSYLVEVVACFAQDGSTLIDCTRDTCGANFIF,soluble
14,METLLTQILDRLDQLHSSVGALTSDVNEMKNQLNKIEARAGSIEERVNSIEARVDSIESRVNNIEANMATKDELAELRSKVDDIEAKMATKDELAELRSTVNGLQSNVNEIQAKMATKEELAELRSKVNELQFKVNELQSNVNEIQAKMATKDDLVPIRQAVMEIDQIVKRIEVNQERHEHILAILSKRSIEHEASIASLRQAQ,not soluble
15,MNVYHYETSGGKDLILEYIDGLPKNEKAEGLTILEKLEKEGLEALEVLNTRQLRGKLWEIKFYRSNRIMYVVADEDNIYLVHACKKQKGKAEKFELDTAIKRVKELEKELGKKFI,not soluble
16,MGSDKIHHHHHHMASLQIAHNTRIVKEAARIAGFDYCGISAARFLEEEAPRLESWLNRNQHGTMSWMENYFDKRLDPRKLVDGAKSVVSVLLNYTPAPEDEILSTGETKISRYAYGKDYHYVLKDKFKQMLQHITEQIGEVNGRAFVDSAPVMDKAWAKQGGLGWVGKHSNIITKDSGSYFFIGELIIDLELDADGPIKDYCGTCTRCIDACPTNAITEPYQVDGSKCISYLTIELKEQIPSEFKEQMQGWAFGCDICQEVCPWNRFAQPINKNEFSPSEELKKYFEMPLKEITKEVFNILFKDSTIKRTKIEGLSRNLTFIKKET,not soluble
17,MLSSKFPLLVATDLSPTGKVVLEKAFKLAKRYHKPLFILHVSETTLFAPKIIELTQIEANLCKLLEPFYARYPEVKATLLCRQGGIEESIISAIKETQASLLLIGTSGEDNLLREFFLGSHCRKIIRSSTIPVLVVKNEEESDYSKIFIPTDFSPSSQKMANLTLHLFPHAYISLFHVILKPFEQRLGMYGLDKDEILRYHKDIDNQSASEADHFIEKLKLPSGKHRIKLLMETGVFSAKLCLQKVKEAQSDLIALNTTGNISFFSMDILNQSPKDVLIFKTDSE,not soluble
18,MGSITENTSWNKEFSAEAVNGVFVLCKSSSKSCATNDLARASKEYLPASTFKIPNAIIGLETGVIKNEHQVFKWDGKPRAMKQWERDLTLRGAIQVSAVPVFQQIAREVGEVRMQKYLKKFSYGNQNISGGIDKFALEGQLRISAVNQVEFLESLYLNKLSASKENQLIVKEALVTEAAPEYLVHSKTGFSGVGTESNPGVAWWVGWVEKETEVYFFAFNMDIDNESKLPLRKSIPTKIMESEGIIGG,soluble
19,MGSDKIHHHHHHMGSLNMPPLDFDAQKTPHIADLRSPQCRNCDIVREIAFCADLSPDEVKRLATVRCHAALPASFTVFREGDEVDHVYSISAGAVKLYKLMPDGRRQIIGFLFSGDLFGLGIDGGYCYTAETITPTHLCRFTHRKLDSLIAEIPRLERRMFTMAVKDLVSAQDQMLLLGRKTAREKVATFLLRLSRRSIQMGLPPSPVALPMSRADIADYLGLTIETVSRTFTQLKRDGIIGLPASGHCIVNDWEALRELAEGG,not soluble
20,MKQVPPAAPVAPWLGGKKRLHPLILERIEAIPHRAYVEPFVGMGGIFLRRRFRPRLEVMNDRNGEIINLFRILQRHYPQLLEIMRFQICSRREFDRLRLTDPATLTDLERAARFLYLQRLSFGGKPNGSFGISPGNGPLFSLARLEPLLDAARTRLDGVVFECLDWADLIPRYDTAETLFYLDPPYFGGENDYGKGLFDRAQFARIAEILGSLKGAFLLSINDTPEIRALFGRFHLEPVRLNYSVSAAGSTEAQELLVSNRERIATLL,not soluble
